# Experimental data taken from patent US20260184814A1 (priority 2022, published 2026).
# Assays:
# [1] = system: BNA7 from B/Perth/211/2011
# FIG. 50B = experiment: FIG. 50B; set-up: CLEARANCE (μg/ml): unit not given here
# N9 from A/Anhui/1/2013 = format: binding
# N1 and N2 neuraminidases = format: biochemical, influenza A virus
# [2] = target: group I (H1N1) IAV, group II (H3N2) IAV, and IBV NAs; format: biochemical, influenza A virus, influenza B virus
# [3] = system: pseudovirus-derived neuraminidase; format: biochemical, influenza A virus
# IAV and IBV NA antigens = format: binding, influenza A virus, influenza B virus
substance,measurement,setting,value
FNI9,IC50,[1],23.209 mg/mL
FNI9-LS,AUC,FIG. 50B,527.46 ± 75.92 µg·days/mL
same,CLEARANCE (μg/ml),FIG. 50B,1.47 ± 0.19
same,HALF-LIFE,FIG. 50B,13.37 ± 1.52 days
same,AUCLAST,FIG. 32,254.583 µg·days/mL
same,CLss,FIG. 32,1.944 mL/day
same,HALF-LIFE,FIG. 32,14.198 days
same,LAMBDA_Z,FIG. 32,0.05 day⁻¹
same,Vz,FIG. 32,40.281 mL
"FNI9-v8.1: FNI9 variant with S28T in VH; VH SEQ ID NO:54, VL SEQ ID NO:8","binding to N9_A_Anhui_2013, assessed by flow cytometry",N9 from A/Anhui/1/2013,binds more strongly
same,IC50 for inhibiting sialidase activity in a MUNANA assay,N1 and N2 neuraminidases,lower IC50
same,in vitro inhibition of sialidase activity (reported as IC50),[2],improved
same,IC50 for inhibiting sialidase activity in an ELLA assay,[3],lower IC50
same,affinity by surface plasmon resonance,IAV and IBV NA antigens,higher affinity
